Experiments:
[1] = target: T1, human CD40 overexpressed on cells (human, UniProt P25942 21-277); experiment: cell-based or functional assay
[2] = target: T1, human CD40 overexpressed on cells; experiment: cell-based or functional assay; remark: listed apart in the source
[3] = target: T1, human CD40 overexpressed on cells; experiment: cell-based or functional assay; remark: listed apart in the source
[4] = target: T1, human CD40 overexpressed on cells; experiment: flow cytometry on CHO-S cells overexpressing human CD40
Experimental: (§1) Specifically, by transfecting the pCHO1.0 vector (Invitrogen) with the human/cynomolgus CD40 cDNA cloned into the MCS and followed by applying pressure selection, CHO-S cells overexpressing human/cynomolgus CD40 were generated. The expanded CD40 overexpressing cells were adjusted to the appropriate cell density and plated on 96-well flow plate. After centrifugation, the cells were incubated with a gradient-diluted sample at 4° C. for 30 minutes. and the cells were then washed twice with PBS, and followed by incubation with a fluorescent secondary antibody diluted to the appropriate concentration, at 4° C. for 30 min. Following two washes with PBS, cells were resuspended in PBS and fluorescent signals were detection on the CytoFlex flow cytometer to calculate the corresponding MFI.

[5] = target: T2, cynomolgus CD40 overexpressed on CHO-S cells (cynomolgus, UniProt G7PG38 21-278); experiment: flow cytometry on CHO-S cells overexpressing cynomolgus CD40
T2 construct: whole, on cells; also called cynomolgus CD40 expressing CHO cells
Experimental: as §1

[6] = target: T3, human CD40-Fc protein (human, UniProt P25942 21-193); experiment: BLI (ForteBio), IgG on AHQ sensor, 100 nM CD40-Fc in solution, bivalent, 1:1 model
T3 construct: also called human CD40-Fc fusion protein; CD40-Fc antigen; not shown: Fc part
Experimental: (§2) The antibody-loaded sensor was further incubated in a high concentration of irrelevant intact antibody solution for 10 minutes to saturate and block the Fc binding sites on the AHQ sensor. The blocked sensor was then incubated with 100 nM CD40-Fc antigen until a plateau was reached, and then the sensor was transferred to the analysis buffer for at least 2 minutes for dissociation rate measurement. Kinetic analysis was performed using a 1:1 binding model.

[7] = target: T4, cynomolgus CD40-Fc protein (cynomolgus, UniProt G7PG38 21-193); experiment: as above
T4 construct: not shown: Fc part
Experimental: as §2

[8] = target: T3, human CD40-Fc protein; experiment: BLI (ForteBio), CD40-Fc on AHQ sensor, 100 nM Fab in solution, monovalent, 1:1 model
Experimental: (§3) The antigen-loaded sensor was incubated with 100 nM Fab solution until a plateau was reached, and then the sensor was transferred to the analysis buffer for at least 2 minutes for dissociation rate measurement. Kinetic analysis was performed using a 1:1 binding model.

[9] = target: T4, cynomolgus CD40-Fc protein; experiment: as above
Experimental: as §3

T3 sequence (P25942 21-193 limits assumed): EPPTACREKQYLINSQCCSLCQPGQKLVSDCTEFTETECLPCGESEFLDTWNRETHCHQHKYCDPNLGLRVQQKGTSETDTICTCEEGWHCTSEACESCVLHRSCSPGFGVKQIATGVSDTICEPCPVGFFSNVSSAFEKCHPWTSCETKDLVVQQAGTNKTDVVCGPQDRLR
T1 sequence (P25942 21-277 limits assumed): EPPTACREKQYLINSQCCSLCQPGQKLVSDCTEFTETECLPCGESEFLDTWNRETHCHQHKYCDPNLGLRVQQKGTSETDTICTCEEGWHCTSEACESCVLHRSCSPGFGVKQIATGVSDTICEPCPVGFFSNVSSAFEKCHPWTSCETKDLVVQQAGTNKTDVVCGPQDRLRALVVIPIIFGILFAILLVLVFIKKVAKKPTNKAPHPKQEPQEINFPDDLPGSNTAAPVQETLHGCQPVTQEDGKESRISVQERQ

Binder | Signal amplification with bead crosslinking (NFkB-Luc2P reporter, U2OS cells overexpressing human CD40) [1] | Signal amplification without bead crosslinking (NFkB-Luc2P reporter, U2OS cells overexpressing human CD40) [1] | EC50 of the CD40-NFkB reporter gene assay (without beads cross-linking) [2] [nM] | EC50 of the CD40-NFkB reporter gene assay (with beads cross-linking) [3] [nM] | EC50 [4] [nM] | EC50 [5] [nM] | Kd [6] [nM] | Kd [7] [nM] | Kd [8] [nM] | Kd [9] [nM]
CP870893-IgG2 (antibody, V domains shown, Control antibody; also called CP870893-IgG2-wt; CP-870893-G2-WT) VH: not shown VL: DIQMTQSPSSVSASVGDRVTITCRASQGIYSWLAWYQQKPGKAPNLLIYTASTLQSGVPSRFSGSGSGTDFTLTISSLQPEDFATYYCQQANIFPLTFGGGTKVEIKR | 14.8 | 4.7 | 131 | 181 | 8 | 7.28 | – | – | – | –
ADI-55168 (antibody, human IgG1, kappa, V domains shown) VH: EVQLVESGGGLVQPGRSLRLSCAASGFTFDTYAMHWVRQAPGKGLEWVSGISWSSGSIHYADSVKGRFTISRDNAKNSLYLQMNSLRAEDTAVYYCAKDPTATTGARGYFDLWGRGTLVTVSS VL: DIQMTQSPSSVSASVGDRVTITCEASQVISSWLAWYQQKPGKAPKLLIYAASYLQSGVPSRFSGSGSGTDFTLTISSLQPEDFATYYCQQHSSFPPTFGGGTKVEIKR | – | – | – | – | 4.73 | 8.85 | 0.111 | 0.122 | – | –
ADI-55164 (antibody, human IgG1, kappa, V domains shown) VH: EVQLVESGGGLVQPGRSLRLSCAASGFTFDDYAMHWVRQAPGKGLEWVSGISWSSDSIHYADSVKGRFTISRDNAKNSLYLQMNSLRAEDTAVYYCAKDPTATTGARGYFDLWGRGTLVTVSS VL: DIQMTQSPSSVSASVGDRVTITCRASKVISSWLAWYQQKPGKAPKLLIYAASYLESGVPSRFSGSGSGTDFTLTISSLQPEDFATYYCQQHSSFPPTFGGGTKVEIKR | – | – | – | – | 5.47 | 8.06 | 0.1 | 0.117 | – | –
ADI-47720 (antibody, human IgG1, kappa, V domains shown) VH: EVQLVESGGGLVQPGRSLRLSCAASGFTFDDYAMHWVRQAPGKGLEWVSGISWSSGSIGYADSVKGRFTISRDNAKNSLYLQMNSLRAEDTAVYYCAKDPTATTGARGYFDLWGRGTLVTVSS VL: DIQMTQSPSSVSASVGDRVTITCRASQGISSWLAWYQQKPGKAPKLLIYAASSLQSGVPSRFSGSGSGTDFTLTISSLQPEDFATYYCQQRASFPPTFGGGTKVEIKR | 11.5 | 1.3 | ~1070 | 304 | 4.82 | 5.54 | 9.32 | 6.07 | – | –
ADI-55168 Fab (Fab, V domains shown) VH: EVQLVESGGGLVQPGRSLRLSCAASGFTFDTYAMHWVRQAPGKGLEWVSGISWSSGSIHYADSVKGRFTISRDNAKNSLYLQMNSLRAEDTAVYYCAKDPTATTGARGYFDLWGRGTLVTVSS VL: DIQMTQSPSSVSASVGDRVTITCEASQVISSWLAWYQQKPGKAPKLLIYAASYLQSGVPSRFSGSGSGTDFTLTISSLQPEDFATYYCQQHSSFPPTFGGGTKVEIK | – | – | – | – | – | – | – | – | 0.988 | 0.586
ADI-47720 Fab (Fab, V domains shown) VH: EVQLVESGGGLVQPGRSLRLSCAASGFTFDDYAMHWVRQAPGKGLEWVSGISWSSGSIGYADSVKGRFTISRDNAKNSLYLQMNSLRAEDTAVYYCAKDPTATTGARGYFDLWGRGTLVTVSS VL: DIQMTQSPSSVSASVGDRVTITCRASQGISSWLAWYQQKPGKAPKLLIYAASSLQSGVPSRFSGSGSGTDFTLTISSLQPEDFATYYCQQRASFPPTFGGGTKVEIK | – | – | – | – | – | – | – | – | 152 | 263
ADI-55164 Fab (Fab, V domains shown, also called Fab fragment of ADI-55164) VH: EVQLVESGGGLVQPGRSLRLSCAASGFTFDDYAMHWVRQAPGKGLEWVSGISWSSDSIHYADSVKGRFTISRDNAKNSLYLQMNSLRAEDTAVYYCAKDPTATTGARGYFDLWGRGTLVTVSS VL: DIQMTQSPSSVSASVGDRVTITCRASKVISSWLAWYQQKPGKAPKLLIYAASYLESGVPSRFSGSGSGTDFTLTISSLQPEDFATYYCQQHSSFPPTFGGGTKVEIK | – | – | – | – | – | – | – | – | 0.663 | 0.72
ADI-55145 Fab (Fab, V domains shown) VH: QVQLVESGGGVVQPGRSLRLSCAASGFTFEKYGMHWVRQAPGKGLEWVAVISYEGTSKYYADSVKGRFTISRDNSKNTLYLQMNSLRAEDTAVYYCARDTSRGHDIWGQGTMVTVSS VL: EIVLTQSPGTLSLSPGERATLSCQASQSVSYNYLAWYQQKPGQAPRLLIYGASSRNNGIPDRFSGSGSGTDFTLTISRLEPEDFAVYYCQQYSDYPPFTFGGGTKVEIK | – | – | – | – | – | – | – | – | 5.88 | 5.72
ADI-55147 Fab (Fab, V domains shown, also called Fab fragment of ADI-55147) VH: QVQLVESGGGVVQPGRSLRLSCAASGFTFGSYGMHWVRQAPGKGLEWVAVISYEGVKKYYADSVKGRFTISRDNSKNTLYLQMNSLRAEDTAVYYCARDTSRGHDIWGQGTMVTVSS VL: EIVLTQSPGTLSLSPGERATLSCRASQSVSYDYLAWYQQKPGQAPRLLIYGASARANGIPDRFSGSGSGTDFTLTISRLEPEDFAVYYCQQYADYPPFTFGGGTKVEIK | – | – | – | – | – | – | – | – | 8.67 | 8.87
ADI-55142 (antibody, human IgG1, kappa, V domains shown) VH: QVQLVESGGGVVQPGRSLRLSCAASGFTFEKYGMHWVRQAPGKGLEWVAVISYEGEKKYYADSVKGRFTISRDNSKNTLYLQMNSLRAEDTAVYYCARDTSRGHDIWGQGTMVTVSS VL: EIVLTQSPGTLSLSPGERATLSCRASQSVSYSYLAWYQQKPGQAPRLLIYGASSRANGIPDRFSGSGSGTDFTLTISRLEPEDFAVYYCSDYADYPPFTFGGGTKVEIKR | – | – | – | – | 7.69 | 6.32 | 0.146 | 0.193 | – | –
ADI-55147 (antibody, human IgG1, kappa, V domains shown) VH: QVQLVESGGGVVQPGRSLRLSCAASGFTFGSYGMHWVRQAPGKGLEWVAVISYEGVKKYYADSVKGRFTISRDNSKNTLYLQMNSLRAEDTAVYYCARDTSRGHDIWGQGTMVTVSS VL: EIVLTQSPGTLSLSPGERATLSCRASQSVSYDYLAWYQQKPGQAPRLLIYGASARANGIPDRFSGSGSGTDFTLTISRLEPEDFAVYYCQQYADYPPFTFGGGTKVEIKR | – | – | – | – | 7.49 | 4.49 | 0.139 | 0.208 | – | –
ADI-55145 (antibody, human IgG1, kappa, V domains shown) VH: QVQLVESGGGVVQPGRSLRLSCAASGFTFEKYGMHWVRQAPGKGLEWVAVISYEGTSKYYADSVKGRFTISRDNSKNTLYLQMNSLRAEDTAVYYCARDTSRGHDIWGQGTMVTVSS VL: EIVLTQSPGTLSLSPGERATLSCQASQSVSYNYLAWYQQKPGQAPRLLIYGASSRNNGIPDRFSGSGSGTDFTLTISRLEPEDFAVYYCQQYSDYPPFTFGGGTKVEIKR | – | – | – | – | 5.26 | 6.66 | 0.169 | 0.226 | – | –
ADI-55144 (antibody, human IgG1, kappa, V domains shown) VH: QVQLVESGGGVVQPGRSLRLSCAASGFTFEKYGMHWVRQAPGKGLEWVAVISYEGTKKYYADSVKGRFTISRDNSKNTLYLQMNSLRAEDTAVYYCARDTSRGHDIWGQGTMVTVSS VL: EIVLTQSPGTLSLSPGERATLSCRASQSVSYSYLAWYQQKPGQAPRLLIYGASSLATGIPDRFSGSGSGTDFTLTISRLEPEDFAVYYCQQYSDYPPFTFGGGTKVEIKR | – | – | – | – | – | – | 0.11 | 0.19 | – | –
ADI-55140 (antibody, human IgG1, kappa, V domains shown) VH: QVQLVESGGGVVQPGRSLRLSCAASGFTFEKYGMHWVRQAPGKGLEWVAVIHYEGSIKYYADSVKGRFTISRDNSKNTLYLQMNSLRAEDTAVYYCARDTSRGHDIWGQGTMVTVSS VL: EIVLTQSPGTLSLSPGERATLSCRASQSVSYDYLAWYQQKPGQAPRLLIYGASTRANGIPDRFSGSGSGTDFTLTISRLEPEDFAVYYCGEYADYPPFTFGGGTKVEIKR | – | – | – | – | 6.3 | 8.53 | 0.168 | 0.23 | – | –

Source: patent US20260265391A1 (BIOTHEUS, published 2026)
